This passage reports percent positive cells results from patent publication US6376459.

For this experiment, the target named is CD40CR (CD40 counter-receptor), 39 kD membrane protein of activated murine helper T cells (murine) (UniProt P27548). The experiment can be described thus: flow cytometry on activated Th, FITC-RG7 detection.
Sequence of UniProt P27548 (P27548 whole entry): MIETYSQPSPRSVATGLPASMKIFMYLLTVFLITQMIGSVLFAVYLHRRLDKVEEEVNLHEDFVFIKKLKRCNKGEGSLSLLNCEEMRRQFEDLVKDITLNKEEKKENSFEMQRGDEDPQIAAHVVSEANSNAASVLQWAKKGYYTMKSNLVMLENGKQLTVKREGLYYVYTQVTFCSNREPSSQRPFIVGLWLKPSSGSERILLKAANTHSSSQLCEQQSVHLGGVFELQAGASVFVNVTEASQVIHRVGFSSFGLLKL

Substance “MR1, hamster anti-murine gp39 monoclonal antibody” showed a percent positive cells of 61%.
